Measurements: article PMC8634136 (The EMBO Journal, 2021)

T1: AND‐1 (human, UniProt O75717 1-1129)
T1 construct: AND-1, human; Only the trimer of SepB domains is ordered in the map; source: Hi5 insect cells (baculovirus), purified (Flag M2, MonoQ, Superdex 200)
T1 sequence: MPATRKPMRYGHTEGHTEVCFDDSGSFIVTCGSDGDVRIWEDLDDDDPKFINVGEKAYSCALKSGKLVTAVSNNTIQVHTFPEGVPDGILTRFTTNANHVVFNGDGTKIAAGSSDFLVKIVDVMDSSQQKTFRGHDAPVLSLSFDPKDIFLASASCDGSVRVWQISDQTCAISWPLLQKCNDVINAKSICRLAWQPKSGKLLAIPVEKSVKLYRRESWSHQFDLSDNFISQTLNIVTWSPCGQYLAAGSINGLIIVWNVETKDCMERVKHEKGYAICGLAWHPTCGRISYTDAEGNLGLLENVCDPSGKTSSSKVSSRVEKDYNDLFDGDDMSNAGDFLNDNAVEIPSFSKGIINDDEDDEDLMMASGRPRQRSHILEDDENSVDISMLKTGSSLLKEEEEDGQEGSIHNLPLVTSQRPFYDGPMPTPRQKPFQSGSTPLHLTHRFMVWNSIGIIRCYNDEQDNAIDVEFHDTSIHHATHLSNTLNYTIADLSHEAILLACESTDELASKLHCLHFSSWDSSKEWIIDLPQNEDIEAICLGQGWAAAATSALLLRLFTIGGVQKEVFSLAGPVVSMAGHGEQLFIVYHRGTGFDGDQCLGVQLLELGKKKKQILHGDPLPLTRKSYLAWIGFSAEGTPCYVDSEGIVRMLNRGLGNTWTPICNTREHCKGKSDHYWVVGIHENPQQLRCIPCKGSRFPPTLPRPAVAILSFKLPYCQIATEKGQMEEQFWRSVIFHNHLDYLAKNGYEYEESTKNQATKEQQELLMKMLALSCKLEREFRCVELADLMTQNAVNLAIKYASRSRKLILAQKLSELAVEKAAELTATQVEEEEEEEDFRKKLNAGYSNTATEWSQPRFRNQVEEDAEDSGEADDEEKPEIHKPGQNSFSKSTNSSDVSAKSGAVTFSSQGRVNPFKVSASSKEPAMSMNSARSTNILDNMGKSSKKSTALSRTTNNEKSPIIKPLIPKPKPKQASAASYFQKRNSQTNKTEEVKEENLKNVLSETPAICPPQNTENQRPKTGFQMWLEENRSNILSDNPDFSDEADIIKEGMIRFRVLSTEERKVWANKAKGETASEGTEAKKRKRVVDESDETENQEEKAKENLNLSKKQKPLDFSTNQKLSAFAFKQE

B1: TIMELESS‐TIPIN heterodimer (complex, human)
chain 1: MDLHMMNCELLATCSALGYLEGDTYHKEPDCLESVKDLIRYLRHEDETRDVRQQLGAAQILQSDLLPILTQHHQDKPLFDAVIRLMVNLTQPALLCFGNLPKEPSFRHHFLQVLTYLQAYKEAFASEKAFGVLSETLYELLQLGWEERQEEDNLLIERILLLVRNILHVPADLDQEKKIDDDASAHDQLLWAIHLSGLDDLLLFLASSSAEEQWSLHVLEIVSLMFRDQNPEQLAGVGQGRLAQERSADFAELEVLRQREMAEKKTRALQRGNRHSRFGGSYIVQGLKSIGERDLIFHKGLHNLRNYSSDLGKQPKKVPKRRQAARELSIQRRSALNVRLFLRDFCSEFLENCYNRLMGSVKDHLLREKAQQHDETYYMWALAFFMAFNRAASFRPGLVSETLSVRTFHFIEQNLTNYYEMMLTDRKEAASWARRMHLALKAYQELLATVNEMDISPDEAVRESSRIIKNNIFYVMEYRELFLALFRKFDERCQPRSFLRDLVETTHLFLKMLERFCRSRGNLVVQNKQKKRRKKKKKVLDQAIVSGNVPSSPEEVEAVWPALAEQLQCCAQNSELSMDSVVPFDAASEVPVEEQRAEAMVRIQDCLLAGQAPQALTLLRSAREVWPEGDVFGSQDISPEEEIQLLKQILSAPLPRQQGPEERGAEEEEEEEEEEEEELQVVQVSEKEFNFLDYLKRFACSTVVRAYVLLLRSYQQNSAHTNHCIVKMLHRLAHDLKMEALLFQLSVFCLFNRLLSDPAAGAYKELVTFAKYILGKFFALAAVNQKAFVELLFWKNTAVVREMTEGYGSLDDRSSSRRAPTWSPEEEAHLRELYLANKDVEGQDVVEAILAHLNTVPRTRKQIIHHLVQMGLADSVKDFQRKGTHIVLWTGDQELELQRLFEEFRDSDDVLGHIMKNITAKRSRARIVDKLLALGLVAERRELYKKRQKKLASSILPNGAESLKDFCQEDLEEEENLPEEDSEEEEEGGSEAEQVQGSLVLSNENLGQSLHQEGFSIPLLWLQNCLIRAADDREEDGCSQAVPLVPLTEENEEAMENEQFQQLLRKLGVRPPASGQETFWRIPAKLSPTQLRRAAASLSQPEEEQKLQPELQPKVPGEQGSDEEHCKEHRAQALRALLLAHKKKAGLASPEEEDAVGKEPLKAAPKKRQLLDSDEEQEEDEGRNRAPELGAPGIQKKKRYQIEDDEDD
chain 2: MLEPQENGVIDLPDYEHVEDETFPPFPPPASPERQDGEGTEPDEESGNGAPVRVPPKRTVKRNIPKLDAQRLISERGLPALRHVFDKAKFKGKGHEAEDLKMLIRHMEHWAHRLFPKLQFEDFIDRVEYLGSKKEVQTCLKRIRLDLPILHEDFVSNNDEVAENNEHDVTSTELDPFLTNLSESEMFASELSRSLTEEQQQRIERNKQLALERRQAKLLSNSQTLGNDMLMNTPRAHTVEEVNTDEDQKEESNGLNEDILDNPCNDAIANTLNEEETLLDQSFKNVQQQLDATSRNITEAR
notes: TIPIN, human; no cleavage is described in the purification; source: Hi5 insect cells (baculovirus), purified (Strep-Tactin XT, HiTrap Q, Superdex 200)
B2: CDC45 (natural protein, human, UniProt O75419 1-566, looked up)
chain: MFVSDFRKEFYEVVQSQRVLLFVASDVDALCACKILQALFQCDHVQYTLVPVSGWQELETAFLEHKEQFHYFILINCGANVDLLDILQPDEDTIFFVCDTHRPVNVVNVYNDTQIKLLIKQDDDLEVPAYEDIFRDEEEDEEHSGNDSDGSEPSEKRTRLEEEIVEQTMRRRQRREWEARRRDILFDYEQYEYHGTSSAMVMFELAWMLSKDLNDMLWWAIVGLTDQWVQDKITQMKYVTDVGVLQRHVSRHNHRNEDEENTLSVDCTRISFEYDLRLVLYQHWSLHDSLCNTSYTAARFKLWSVHGQKRLQEFLADMGLPLKQVKQKFQAMDISLKENLREMIEESANKFGMKDMRVQTFSIHFGFKHKFLASDVVFATMSLMESPEKDGSGTDHFIQALDSLSRSNLDKLYHGLELAKKQLRATQQTIASCLCTNLVISQGPFLYCSLMEGTPDVMLFSRPASLSLLSKHLLKSFVCSTKNRRCKLLPLVMAAPLSMEHGTVTVVGIPPETDSSDRKNFFGRAFEKAAESTSSRMLHNHFDLSVIELKAEDRSKFLDALISLLS
notes: CDC45, human; Stood in the structure as a subunit of m1; source: Hi5 insect cells, purified as a subunit of hsCMG
B3: PSF2 (natural protein, human)
chain: MDAAEVEFLAEKELVTIIPNFSLDKIYLIGGDLGPFNPGLPVEVPLWLAINLKQRQKCRLLPPEWMDVEKLEKMRDHERKEETFTPMPSPYYMELTKLLLNHASDNIPKADEIRTLVKDMWDTRIAKLRVSADSFVRQQEAHAKLDNLTLMEINTSGTFLTQALNHMYKLRTNLQPLESTQSQDF
notes: PSF2 (GINS subunit), human; Stood in the structure as a subunit of m1; also called PSF2 subunit of GINS; source: Hi5 insect cells, purified as a subunit of hsCMG
B4: MCM5 (natural protein, human)
chain: MSGFDDPGIFYSDSFGGDAQADEGQARKSQLQRRFKEFLRQYRVGTDRTGFTFKYRDELKRHYNLGEYWIEVEMEDLASFDEDLADYLYKQPAEHLQLLEEAAKEVADEVTRPRPSGEEVLQDIQVMLKSDASPSSIRSLKSDMMSHLVKIPGIIIAASAVRAKATRISIQCRSCRNTLTNIAMRPGLEGYALPRKCNTDQAGRPKCPLDPYFIMPDKCKCVDFQTLKLQELPDAVPHGEMPRHMQLYCDRYLCDKVVPGNRVTIMGIYSIKKFGLTTSRGRDRVGVGIRSSYIRVLGIQVDTDGSGRSFAGAVSPQEEEEFRRLAALPNVYEVISKSIAPSIFGGTDMKKAIACLLFGGSRKRLPDGLTRRGDINLLMLGDPGTAKSQLLKFVEKCSPIGVYTSGKGSSAAGLTASVMRDPSSRNFIMEGGAMVLADGGVVCIDEFDKMREDDRVAIHEAMEQQTISIAKAGITTTLNSRCSVLAAANSVFGRWDETKGEDNIDFMPTILSRFDMIFIVKDEHNEERDVMLAKHVITLHVSALTQTQAVEGEIDLAKLKKFIAYCRVKCGPRLSAEAAEKLKNRYIIMRSGARQHERDSDRRSSIPITVRQLEAIVRIAEALSKMKLQPFATEADVEEALRLFQVSTLDAALSGTLSGVEGFTSQEDQEMLSRIEKQLKRRFAIGSQVSEHSIIKDFTKQKYPEHAIHKVLQLMLRRGEIQHRMQRKVLYRLK
notes: MCM5, human; Stood in the structure as a subunit of m1; source: Hi5 insect cells, purified as a subunit of hsCMG

How the values were obtained:
Settings in all cases: both partners purified
[1] = biological target: T2, human CDC45‐MCM‐GINS (CMG) helicase (human, UniProt P49736 1-904; P25205 1-808; P33991 1-863; P33992 1-734; Q14566 1-821; P33993 …); assay: co-sedimentation; native glycerol gradient without cross-linker (40 mM HEPES-NaOH pH 7.5, 150 mM NaOAc, 0.5 mM TCEP, 500 µM AMP-PNP, 3 mM Mg(OAc)2), 200,000 g, 4°C, 2 h; 100 nM CMG pre-incubated with fork DNA, 1.5-fold molar excess of the other proteins; fractions on silver-stained SDS-PAGE
T2 construct: MCM2, human; MCM3, human; the construct lacks the 45 additional N-terminal amino acids of the longer isoform used in PDB 6XTX; MCM4, human; MCM5, human; MCM6, human; MCM7, human; CDC45, human; PSF1 (GINS subunit), human; PSF2 (GINS subunit), human; PSF3 (GINS subunit), human; SLD5 (GINS subunit), human; also called hsCMG; source: Hi5 insect cells co-infected with baculoviruses for MCM2-7, GINS …

POLE1 = biological target: T3, POLE1 (human, UniProt Q07864 1-2286); assay: cryo-EM structure; replisome reconstituted on fork DNA with AMP-PNP, isolated on a glycerol gradient with glutaraldehyde and BS3; 3.2 Å overall; a sample without CLASPIN solved at 3.4 Å
T3 construct: POLE1, catalytic subunit of Pol ε, human; Stood in the structure as a subunit of m2; residues 1,371-2,280 modelled; also called POLE1 catalytic subunit; POLE1^nonCat (the modelled C-terminal non-catalytic domain); source: Hi5 insect cells, purified as a subunit of Pol ε

AND‐1 = biological target: T1, AND‐1; assay: as above

T3 sequence (Q07864 whole entry, the tested form may be a part): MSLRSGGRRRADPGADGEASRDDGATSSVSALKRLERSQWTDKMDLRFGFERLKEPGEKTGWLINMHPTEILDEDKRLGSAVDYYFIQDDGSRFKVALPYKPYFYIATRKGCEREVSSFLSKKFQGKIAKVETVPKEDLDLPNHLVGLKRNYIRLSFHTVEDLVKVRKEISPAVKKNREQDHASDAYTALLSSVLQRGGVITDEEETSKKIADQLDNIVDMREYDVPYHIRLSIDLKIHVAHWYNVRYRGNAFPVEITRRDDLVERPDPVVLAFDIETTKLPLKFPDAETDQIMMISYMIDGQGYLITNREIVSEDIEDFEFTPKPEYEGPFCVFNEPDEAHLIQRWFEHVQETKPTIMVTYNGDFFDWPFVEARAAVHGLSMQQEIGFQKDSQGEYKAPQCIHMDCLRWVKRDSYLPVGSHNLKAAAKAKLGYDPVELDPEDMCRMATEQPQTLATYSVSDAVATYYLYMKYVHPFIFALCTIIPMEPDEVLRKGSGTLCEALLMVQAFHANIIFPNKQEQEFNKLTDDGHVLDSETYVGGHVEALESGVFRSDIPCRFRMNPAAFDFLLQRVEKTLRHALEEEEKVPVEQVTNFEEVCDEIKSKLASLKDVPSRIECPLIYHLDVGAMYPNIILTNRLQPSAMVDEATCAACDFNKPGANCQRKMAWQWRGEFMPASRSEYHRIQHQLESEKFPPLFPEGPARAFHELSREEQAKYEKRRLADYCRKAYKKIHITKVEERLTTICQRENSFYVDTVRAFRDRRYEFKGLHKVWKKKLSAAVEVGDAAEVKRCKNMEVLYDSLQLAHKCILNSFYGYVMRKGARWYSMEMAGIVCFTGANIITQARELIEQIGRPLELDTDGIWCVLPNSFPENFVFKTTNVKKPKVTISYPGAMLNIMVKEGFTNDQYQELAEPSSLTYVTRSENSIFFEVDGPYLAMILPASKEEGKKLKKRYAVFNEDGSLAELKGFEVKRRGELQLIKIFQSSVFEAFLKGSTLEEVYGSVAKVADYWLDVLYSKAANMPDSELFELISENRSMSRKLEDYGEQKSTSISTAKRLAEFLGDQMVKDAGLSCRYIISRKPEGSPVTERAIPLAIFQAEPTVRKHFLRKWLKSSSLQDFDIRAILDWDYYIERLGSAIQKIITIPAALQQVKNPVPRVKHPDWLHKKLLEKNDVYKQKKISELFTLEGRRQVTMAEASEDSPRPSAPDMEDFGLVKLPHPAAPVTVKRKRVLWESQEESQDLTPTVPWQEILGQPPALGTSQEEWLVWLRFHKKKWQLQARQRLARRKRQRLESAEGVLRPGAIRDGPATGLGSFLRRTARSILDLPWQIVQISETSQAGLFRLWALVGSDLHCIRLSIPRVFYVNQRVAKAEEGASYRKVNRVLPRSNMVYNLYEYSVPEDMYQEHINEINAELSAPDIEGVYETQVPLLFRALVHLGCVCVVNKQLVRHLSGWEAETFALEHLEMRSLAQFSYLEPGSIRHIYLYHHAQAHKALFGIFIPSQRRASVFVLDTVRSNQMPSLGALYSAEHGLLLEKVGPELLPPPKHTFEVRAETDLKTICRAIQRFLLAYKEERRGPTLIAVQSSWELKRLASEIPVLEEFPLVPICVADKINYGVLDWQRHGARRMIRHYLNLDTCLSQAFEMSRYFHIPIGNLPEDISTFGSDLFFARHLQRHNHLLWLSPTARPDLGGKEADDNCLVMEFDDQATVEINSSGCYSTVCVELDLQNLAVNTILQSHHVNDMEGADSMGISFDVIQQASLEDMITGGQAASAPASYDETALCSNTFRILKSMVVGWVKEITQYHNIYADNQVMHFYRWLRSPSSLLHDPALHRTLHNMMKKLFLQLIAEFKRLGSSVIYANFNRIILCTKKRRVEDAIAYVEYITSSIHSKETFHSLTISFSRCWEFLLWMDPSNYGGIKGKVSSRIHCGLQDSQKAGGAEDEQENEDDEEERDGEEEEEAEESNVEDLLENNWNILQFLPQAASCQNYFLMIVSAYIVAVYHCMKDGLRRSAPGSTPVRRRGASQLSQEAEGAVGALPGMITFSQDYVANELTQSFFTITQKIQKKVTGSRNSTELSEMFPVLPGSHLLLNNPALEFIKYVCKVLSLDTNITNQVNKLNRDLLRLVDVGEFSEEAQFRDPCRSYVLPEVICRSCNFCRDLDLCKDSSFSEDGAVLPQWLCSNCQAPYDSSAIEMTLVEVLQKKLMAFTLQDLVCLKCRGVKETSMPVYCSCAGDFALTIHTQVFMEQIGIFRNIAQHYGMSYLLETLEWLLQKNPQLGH

Binder	binding result [1]	binding result (POLE1)	binding result (AND‐1)
B1	binds		
B2		binds	binds
B3			binds
B4		binds	
